The target of the assay is HLA-Cw4 on LCL 721.221-Cw4 cells (human). Briefly: cell-based or functional assay.

In turn, “KIR2DL1 expressed on YTS-2DL1 NK cells (from UniProt P43626 22-348)” showed a killing of LCL 721.221-Cw4 cells by YTS-2DL1 in the absence of any anti-KIR mAb of 5%.
